According to paper PMC7382286, “Extensive sequence and structural evolution of Arginase 2 inhibitory antibodies enabled by an unbiased approach to affinity maturation” (Proceedings of the National Academy of Sciences of the …, 2020):

Columns and labels:
[1] = target: T1, recombinant human Arginase 2 (human, UniProt P78540); assay: SEC; Fab and ARG2 in solution; ratio of Fab to ARG2 upon complex formation; conditions: both partners purified
T1 construct: Arginase 2 (ARG2), human, recombinant; also called ARG2; trimeric ARG2; source: recombinant

[2] = target: T1, recombinant human Arginase 2; assay: crystal structure; ARG2-Fab C0020187 complex purified by SEC, crystallised; space group P 6(5) 2 2, 3.25 Å; conditions: both partners purified
[3] = target: T1, recombinant human Arginase 2; assay: cell-based or functional assay
[4] = target: T2, biotinylated recombinant human Arginase 2 (Homo sapiens, UniProt P78540, biotin (biotinylated; site not stated)); assay: BLI; OctetRED96, 25 °C, PBS with 0.01% BSA and 0.002% Tween 20; biotinylated human ARG2 captured on streptavidin sensors, Fabs titrated as analyte; 1:1 binding model (heterogeneous ligand model for C0020187); conditions: both partners purified
T2 construct: Arginase 2 (ARG2), human, recombinant; Construct, tags and the way of biotinylation are in the SI Appendix; also called ARG2; biotinylated human ARG2; source: recombinant

[5] = target: the molecule itself; assay: crystal structure; ARG2-Fab C0020187 complex purified by SEC, crystallised; space group P 6(5) 2 2, 3.25 Å

B1: Fab C0020187 (Fab, V domains shown)
VH: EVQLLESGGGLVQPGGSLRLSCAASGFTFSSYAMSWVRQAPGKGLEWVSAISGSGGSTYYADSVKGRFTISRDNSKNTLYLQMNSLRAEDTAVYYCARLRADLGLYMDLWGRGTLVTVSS
VL: QSVLTQPPSVSAAPGQKVTISCSGSSSNIGNHYVSWYQQLPGTAPKLLIYDNSERPSGIPDRFSGSKSGTSATLGITGLQTGDEADYYCGTWDSSLSALVFGGGTKLTVL
notes: VH of C0020187; Fab heavy-chain constant region; VL of C0020187; Fab light-chain constant region; also called parental antibody; parent Fab C0020187
stoichiometry N [1]: 1 Fab per ARG2 trimer
stoichiometry N [2]: 3 Fab per ARG2 trimer
inhibition of the enzymatic activity of recombinant human ARG2 (1 µg/mL, ~24 nM; urea measured colorimetrically), IC50 [3]: 0.9 µM
KD of the initial high-affinity binding site (heterogeneous ligand model) [4]: ~0.01 µM

B2: Fab C0021128 (Fab, V domains shown)
VH: EVQLLESGGGLVQPGGSLRLSCAASGFTFQYEVAAWVRQAPGKGLEWVSAISGPIPKGYYADSVKGRFTISRDNSKNTLYLQMNSLRAEDTAVYYCARLRADLGLYMDLWGRGTLVTVSS
VL: QSVLTQPPSVSAAPGQKVTISCSGSSSNIGNHYVSWYQQLPGTAPKLLIYDNAIESSGIPDRFSGSKSGTSATLGITGLQTGDGADYYCGTWDSNLSALVFGGGTKLTVL
notes: VH of C0021128; Fab heavy-chain constant region; VL of C0021128; Fab light-chain constant region
binding result [4]: binds

B3: Fab C0021158 (Fab, V domains shown)
VH: EVQLLESGGGLVQPGGSLRLSCAASGFTFRYEVAAWVRQAPGKGLEWVSAISGPIPKGYYADSVKGRFTISRDNSKNTLYLQMNSLRAEDTAVYYCARLRADLGLYMDLWGRGTLVTVSS
VL: QSVLTQPPSVSAAPGQKVTISCSGSSSNIGNHYVSWYQQLPGTAPKLLIYDNSERTAGVPDRFSGSKSGTSATLGITGLQTGDEADYYCGTWDELTSNLVFGGGTKLTVL
notes: VH of C0021158; VL of C0021158; Pool-maturation lead; 18 amino acid changes against C0020187
stoichiometry N [1]: 3 Fab per ARG2 trimer

B4: Fab C0021177 (Fab, V domains shown)
VH: EVQLLESGGGLVQPGGSLRLSCAASGFTFRYEVAAWVRQAPGKGLEWVSAISGPAPKGYYADSVKGRFTISRDNSKNTLYLQMNSLRAEDTAVYYCARLRADLGLYMDLWGRGTLVTVSS
VL: QSELTQPPTASAAPGQKVTISCSGSSSNIGNHYVSWYQQLPGTAPKLLIYDTTVLSSGIPDRFSGSKSGTSATLGITGLQTGDEADYYCGTWDELTSNLVFGGGTKLTVL
notes: VH of C0021177; VL of C0021177; Pool-maturation lead
stoichiometry N [1]: 3 Fab per ARG2 trimer

B5: Fab C0021181 (Fab, V domains shown)
VH: EVQLLESGGGLVRPGGSLRLSCAASEFTFRYDYHVWVRQAPGKGLEWVSAISGSGGSTYYADSVKSRFTISRDNSKNTLYLQMNSLRAEDTAVYYCARLRADLGLYMDLWGRGTLVTVSS
VL: QSVLTQPPSVSAAPGQKVAVSCSGSSSNIGSHYVSWYQQLPGTAPKLLIYDNSERTSGIPDRFSGSKSGTSATLGITGLQTGDEADYYCGTWDELTSNLVFGGGTRLTVL
notes: VH of C0021181; VL of C0021181; Pool-maturation lead; 18 amino acid changes against C0020187
stoichiometry N [1]: 3 Fab per ARG2 trimer

B6: Fab C0021133 (Fab, V domains shown)
VH: EVQLLESGGGLVQPGGSLRLSCAASGFTFRYDHHVWVRQAPGKGLEWVSAISGSGGSTYYADSVKGRFTISRDNSKNTLYLQMNSLRAEDTAVYYCARLRADLGLYMDLWGRGTLVTVSS
VL: QSVLTQPPSVSAAPGQKVTVSCSGSSSNIGNHYVSWYQQLPGTAPKLLIYDTTVLSSGIPDRFSGSKSGTSATLGITGLQTGDEADYYCGTWDELTSNLVFGGGTKLTVL
notes: VH of C0021133; Fab heavy-chain constant region; VL of C0021133; Fab light-chain constant region
binding result [4]: binds

B7: recombinant human Arginase 2 (enzyme)
chain: VHSVAVIGAPFSQGQKRKGVEHGPAAIREAGLMKRLSSLGCHLKDFGDLSFTPVPKDDLYNNLIVNPRSVGLANQELAEVVSRAVSDGYSCVTLGGDHSLAIGTISGHARHCPDLCVVWVDAHADINTPLTTSSGNLHGQPVSFLLRELQDKVPQLPGFSWIKPCISSASIVYIGLRDVDPPEHFILKNYDIQYFSMRDIDRLGIQKVMERTFDLLIGKRQRPIHLSFDIDAFDPTLAPATGTPVVGGLTYREGMYIAEEIHNTGLLSALDLVEVNPQLATSEEEAKTTANLAVDVIASSFGQTREGGHIVYDQLPTPSSPDESENQARVRI
notes: Arginase 2 (ARG2), human, recombinant; also called ARG2; trimeric ARG2; source: recombinant
stoichiometry N [5]: 3

B8: Fab C0021139 (Fab, V domains shown)
VH: EVQLLESGGGLVQPGGSLRLSCAASGFTFQYDYQVWVRQAPGKGLEWVSAISGSGGSTYYADSVKGRFTISRDNSKNTLYLQMNSLRAEDTAVYYCARLRADLGLYMDLWGRGTLVTVSS
VL: QSVLTQPPSVSAAPGQKVTISCSGSSSNIGNHYVSWYQQLPGTAPKLLIYDNSERTSGIPDRFSGSKSGTSATLGITGLQTGDEADYYCGTWDELTSNLVFGGGTKLTVL
notes: VH of C0021139; Fab heavy-chain constant region; VL of C0021139; Fab light-chain constant region
binding result [4]: binds
